Source: patent US9683053B2 (Glenmark Pharmaceuticals S.A., dated 2017)

Columns and labels:
Assay in all cases: co-expression, protein-A, scanning densitometry of non-reduced SDS-PAGE
VL-BT beta chain = VL-BT beta chain (Artificial Sequence)
[1] = molecular target: VH(anti-hCD19)-CH1 delta-BT beta c-myc_VL(anti-hCD19)-CK gamma molecule (half-molecule) (Artificial Sequence)
[2] = molecular target: VH(anti-hCD19)-CH13-BT beta c-myc_VL(anti-hCD19)-CK3 molecule (half-molecule) (Artificial Sequence)
VL-BT beta F405A chain = VL-BT beta F405A chain (Artificial Sequence)
VL-BT beta F405A chain (Artificial Sequence), sequence (chain, as listed by the source F405A F405A): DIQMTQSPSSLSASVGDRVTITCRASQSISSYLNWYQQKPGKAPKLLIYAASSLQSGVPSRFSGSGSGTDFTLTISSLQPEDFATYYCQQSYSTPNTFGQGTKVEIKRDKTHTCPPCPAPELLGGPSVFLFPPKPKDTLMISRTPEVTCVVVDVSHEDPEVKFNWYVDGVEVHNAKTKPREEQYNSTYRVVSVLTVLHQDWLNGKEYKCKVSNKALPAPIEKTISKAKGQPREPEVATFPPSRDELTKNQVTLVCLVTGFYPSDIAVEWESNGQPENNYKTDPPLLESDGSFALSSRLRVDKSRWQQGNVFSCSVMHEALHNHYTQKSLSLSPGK

VL-BT beta chain (Artificial Sequence), sequence (chain, as listed by the source): as the sequence (chain, as listed by the source F405A F405A) above, with A293C counted along it
VH(anti-hCD19)-CH1 delta-BT beta c-myc_VL(anti-hCD19)-CK gamma molecule (half-molecule) (Artificial Sequence), sequence (heavy, as listed by the source, chain 1 of 2): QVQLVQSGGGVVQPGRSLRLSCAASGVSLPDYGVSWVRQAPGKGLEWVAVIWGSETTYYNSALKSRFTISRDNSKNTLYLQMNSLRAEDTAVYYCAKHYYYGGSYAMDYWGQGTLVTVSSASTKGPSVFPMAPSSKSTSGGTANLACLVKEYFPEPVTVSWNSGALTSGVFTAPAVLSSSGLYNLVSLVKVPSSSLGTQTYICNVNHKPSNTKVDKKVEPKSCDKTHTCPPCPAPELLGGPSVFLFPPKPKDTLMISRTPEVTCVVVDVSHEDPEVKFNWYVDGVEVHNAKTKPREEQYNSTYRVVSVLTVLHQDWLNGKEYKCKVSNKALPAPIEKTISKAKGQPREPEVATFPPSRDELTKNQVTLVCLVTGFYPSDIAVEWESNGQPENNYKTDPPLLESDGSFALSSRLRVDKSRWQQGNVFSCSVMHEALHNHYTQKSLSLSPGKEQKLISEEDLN
VH(anti-hCD19)-CH1 delta-BT beta c-myc_VL(anti-hCD19)-CK gamma molecule (half-molecule) (Artificial Sequence), sequence (light, as listed by the source, chain 2 of 2): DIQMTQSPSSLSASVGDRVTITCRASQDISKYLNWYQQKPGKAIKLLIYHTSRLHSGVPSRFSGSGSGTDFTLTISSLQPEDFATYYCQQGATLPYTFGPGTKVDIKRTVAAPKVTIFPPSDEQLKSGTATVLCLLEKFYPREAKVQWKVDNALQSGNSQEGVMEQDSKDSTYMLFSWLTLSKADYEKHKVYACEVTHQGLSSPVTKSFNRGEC
VH(anti-hCD19)-CH13-BT beta c-myc_VL(anti-hCD19)-CK3 molecule (half-molecule) (Artificial Sequence), sequence (heavy, as listed by the source, chain 1 of 2): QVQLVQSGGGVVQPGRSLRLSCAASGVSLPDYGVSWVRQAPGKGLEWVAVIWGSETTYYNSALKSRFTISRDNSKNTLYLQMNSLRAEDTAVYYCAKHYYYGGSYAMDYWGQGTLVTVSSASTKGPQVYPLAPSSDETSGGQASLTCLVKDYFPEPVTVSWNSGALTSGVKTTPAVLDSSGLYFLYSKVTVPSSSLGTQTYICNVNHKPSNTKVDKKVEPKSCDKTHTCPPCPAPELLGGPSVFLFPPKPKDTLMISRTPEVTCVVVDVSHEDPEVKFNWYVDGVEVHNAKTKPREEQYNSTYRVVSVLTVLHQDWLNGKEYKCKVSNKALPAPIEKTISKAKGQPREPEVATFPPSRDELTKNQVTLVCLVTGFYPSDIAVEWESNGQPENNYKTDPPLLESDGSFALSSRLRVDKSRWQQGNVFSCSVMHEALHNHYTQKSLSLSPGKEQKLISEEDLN
VH(anti-hCD19)-CH13-BT beta c-myc_VL(anti-hCD19)-CK3 molecule (half-molecule) (Artificial Sequence), sequence (light, as listed by the source, chain 2 of 2): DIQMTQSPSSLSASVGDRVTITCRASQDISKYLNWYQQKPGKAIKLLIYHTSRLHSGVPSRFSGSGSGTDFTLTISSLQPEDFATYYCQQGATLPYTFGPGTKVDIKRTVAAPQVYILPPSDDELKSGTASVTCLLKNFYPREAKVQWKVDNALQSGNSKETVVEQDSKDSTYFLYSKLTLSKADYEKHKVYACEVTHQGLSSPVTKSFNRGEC

B1: BT alpha His chain (other)
chain: DKTHTCPPCPAPELLGGPSVFLFPPKPKDTLMISRTPEVTCVVVDVSHEDPEVKFNWYVDGVEVHNAKTKPREEQYNSTYRVVSVLTVLHQDWLNGKEYKCKVSNKALPAPIEKTISKAKGQPREPQVYTLPPSRDELTKNQVKLVCLVTGFYPSDIAVEWESNGQPENNYYTTPPVLDSDGSFSLVSWLNVDKSRWQQGNVFSCSVMHEALHNHYTQKSLSLSPGKHHHHHH
For B1, the “hetero-dimer percentage of the protein-A purified material” value (“hetero-dimer percentage” for short) (VL-BT beta chain) was ≥ 76.1%, the “hetero-dimer percentage” value [1] was ≥ 50% and the “hetero-dimer percentage” value [2] was ≥ 51.9%. For the same binder, the “hetero-dimer percentage” value (VL-BT beta F405A chain) was ≥ 80.7%.
